The test system of assay [1] is phosphatidylserine (PS) surface on FPH. Kind of assay: T-TAS of FPH with increasing dose of lactadherin. To be noted: highest lactadherin concentration (200 μg/mL), FPH 8×10^4 cells/μl. It is filed as biochemical, human. The protocol:
Cells were adjusted to 8×10^4 cells/μl by diluting in Octaplas and in preparations of either 0, 100, or 200 μg/mL of lactadherin and incubated for 30 minutes at room temperature before acquisition on T-TAS® (Zacros®, zacros.con.co.jp). Samples (480 μl) were normalized to the above counts and then transferred to microcentrifuge tubes containing 20 ul of CaCTI (CaCl2 and corn trypsin inhibitor). The CaCTI-treated samples were transferred to sample reservoirs on a T-TAS®. The sample reservoirs were then inserted into the AR microfluidic chips and acquired on the T-TAS. […] This confirms the necessity of retaining the negatively charged PS surface on FPH to generate thrombin.

Another assay relates to phosphatidylserine (PS). Kind of assay: FPH thrombin generation response to PS blocking by lactadherin. It is filed as biochemical, human. How it is done:
Lactadherin (Haematologic Technologies, haemtech.com) was thawed per manufacturer instructions. FPHs were incubated with lactadherin at room temperature for 30 minutes at a concentration of 0, 25, 50, 100, and 200 μg/ml. 60 mM GPRP (BACHEM, bachem.com), thrombin (Sigma Aldrich, sigmaaldrich.com) and Octoplas (Octophrama, octopharma.com) were thawed according to manufacturer's guidelines. CLARIOstarPlus was used to perform TGA. A master mix of Octaplas, PRP reagent (Diagnostica Stago, Cat. No. 86196), and GPRP was prepared in a ratio of 14:3:1, respectively. Flu substrate and Fluo-buffer were combined according to manufacturer's guidelines to create FluCa (Diagnostica Stago, stago.com). Master mix and the FluCa solution were placed in the 37° C. air incubator with agitation for 45±5 minutes. […] 10 μl of each sample was dispensed into selected wells of a 96-well plate (Corning, corning.com) by reverse pipetting. TGA dilution buffer for thrombin was used in the thrombin standard ladder. CLARIOstarPlus injectors 1 and 2 were primed with master mix and FluCa solution with 250 μl, then the injector was placed in the active position. The CLARIOstarPlus TGA program was loaded with parameters for TGA assay with injectors set to add 90 μl of master mix and 40 μl of FluCa solution to each well. Plate was inserted to be read.

B1: lactadherin: lactadherin used to block PS expression (protein, UniProt Q95114 19-427, looked up)
Lactadherin: ASGDFCDSSLCLHGGTCLLNEDRTPPFYCLCPEGFTGLLCNETEHGPCFPNPCHNDAECQVTDDSHRGDVFIQYICKCPLGYVGIHCETTCTSPLGMQTGAIADSQISASSMHLGFMGLQRWAPELARLHQTGIVNAWTSGNYDKNPWIQVNLMRKMWVTGVVTQGASRAGSAEYLKTFKVAYSTDGRQFQFIQVAGRSGDKIFIGNVNNSGLKINLFDTPLETQYVRLVPIICHRGCTLRFELLGCELNGCTEPLGLKDNTIPNKQITASSYYKTWGLSAFSWFPYYARLDNQGKFNAWTAQTNSASEWLQIDLGSQKRVTGIITQGARDFGHIQYVAAYRVAYGDDGVTWTEYKDPGASESKIFPGNMDNNSHKKNIFETPFQARFVRIQPVAWHNRITLRVELLGC
On to B1, for which the “effect on time to thrombus formation of FPH” value in assay [1] was “approximately doubled the time to thrombus formation”. In addition, the “thrombin generation of FPH” value in the assay on phosphatidylserine (PS) (lactadherin 0, 25, 50, 100, 200 μg/ml) is on record as “decreasing thrombin generation”. In addition, the “maximum peak time of thrombin generation of FPH” value in the assay with phosphatidylserine (PS) (lactadherin 0-200 μg/ml, 1:64 dilution) is recorded as “increasing maximum peak time”.

The record behind these values is patent publication US20240307453A1, “METHODS FOR CONTROLLING BLEEDING IN A SUBJECT AFFLICTED WITH HERMANSKY PUDLAK SYNDROME USING PLATELET DERIVATIVE COMPOSITIONS” (Cellphire, Inc., priority 2023, published 2024).
